Source: PMC3087862 (Nature structural & molecular biology, 2011)

B1: human Hsp90α two-domain construct MC (293-732) (domain or fragment)
chain: not shown
B2: human Hsp90α full-length protein without part of the N-M linker (Hsp90Δ; 1-732, 241-268 deleted) (natural protein)
chain: not shown

Biological target: the molecule itself
Assay: SEC

Protein | stoichiometry N
B1 | 2
B2 | 2
